Assay results taken from patent US20160193348A1, “MUCOUS LAYER-ADHESIVE POLY-r-[sequence] ACID NA[…] DRUG [sequence] SYSTEM USING SAME” (priority 2013, published 2016).

Tests used:
[1] = mucous adhesive property by SPECT/CT imaging after intranasal injection; conditions: 123I-labeled, mice, imaging at 1, 6 and 12 hours
Procedure: The selected eluate fraction was diluted with PBS to a final concentration of 500 μg/ml in view of ^123I-activity to be injected per mouse.
The amount of sample injected for SPECT/CT imaging was such that the sample would have a ^123I-activity of about 200 μCi or more in 40 μl upon nasal administration. 40 μl of a sample was injected into each mouse using a tip for nasal administration, and at 1, 6 and 12 hours after injection, SPECT/CT imaging was started. SPECT/CT imaging was performed for about 1 hour, in which CT imaging was performed for 10 minutes, followed by SPECT imaging for 50 minutes. Because the amount of sample injected intranasally is limited to 40 μl or less, the concentration of the sample is necessarily required to ensure ^123I-activity for imaging. ^123I-labeled nanomicelles were centrifuged, filtered (Ultracel, 10 kDa) and concentrated, thereby ensuring activity required for imaging per 40 μl. The sample was injected into both nasal cavities alternately at intervals of a few minutes depending on the size and condition of the mouse.

[2] = immunohistofluorescence imaging after intranasal injection of FITC-labeled OVA; conditions: mice

B1: OVA alone: OVA (ovalbumin, Sigma-Aldrich), model antigen injected alone (protein, UniProt P01012 2-386, looked up)
Ovalbumin: GSIGAASMEFCFDVFKELKVHHANENIFYCPIAIMSALAMVYLGAKDSTRTQINKVVRFDKLPGFGDSIEAQCGTSVNVHSSLRDILNQITKPNDVYSFSLASRLYAEERYPILPEYLQCVKELYRGGLEPINFQTAADQARELINSWVESQTNGIIRNVLQPSSVDSQTAMVLVNAIVFKGLWEKAFKDEDTQAMPFRVTEQESKPVQMMYQIGLFRVASMASEKMKILELPFASGTMSMLVLLPDEVSGLEQLESIINFEKLTEWTSSNVMEERKIKVYLPRMKMEEKYNLTSVLMAMGITDVFSSSANLSGISSAESLKISQAVHAAHAEINEAGREVVGSAEAGVDAASVSEEFRADHPFLFCIKHIATNAVLFFGRCVSP
For B1, the “time OVA remained in the nasal cavity (SPECT/CT)” value [1] was at most 6 h and the “time OVA remained in the nasal cavity (immunohistofluorescence)” value [2] was about 1 h.
